In patent US20220324957A1 (OPSIDIO, published 2022):

B1: 5H10 VH0/VK0 (chimeric) (antibody, V domains shown)
VH: QVQLQQSGAELVRPGSSVKISCKSSGYAFSSYWMNWVKQRPGQGLEWIGQIYPGDGDTHYNGKFKGKATLTADKSSSTAYMQLSRLTSEDSAVYFCSSSNWVGSYWGQGTLVTVSA
VL: not shown
notes: also called chimeric 5H10
B2: humanized 5H10 VH4/VK2 (antibody, human IgG4, V domains shown)
VH: QVQLVQSGAEVKKPGSSVKVSCKSSGYAFSSYWMNWVRQRPGQGLEWIGQIYPGDGDTHYNGKFKGRVTITADKSTSTAYMELSSLRSEDTAVYFCSSSNWVGSYWGQGTLVTVSS
VL: DVVMTQSPLSLPVTLGQPASISCKSSQSLLESDGKTYLNWLQQRPGQSPRRLIYLVSRLDSGVPDRFTGSGSGTDFTLKISRVEAEDVGVYYCWQGTHLPQTFGGGTKVEIK
notes: Only variable domains are tied to the name; Humanized from the chimeric antibody, which has a human IgG4 backbone and a kappa light chain
B3: humanized 5H10 VH3/VK2 (antibody, human IgG4, V domains shown)
VH: QVQLVQSGAEVKKPGSSVKVSCKSSGYAFSSYWMNWVRQRPGQGLEWIGQIYPGDGDTHYNGKFKGKATLTADKSTSTAYMELSSLRSEDTAVYFCSSSNWVGSYWGQGTLVTVSS
VL: DVVMTQSPLSLPVTLGQPASISCKSSQSLLESDGKTYLNWLQQRPGQSPRRLIYLVSRLDSGVPDRFTGSGSGTDFTLKISRVEAEDVGVYYCWQGTHLPQTFGGGTKVEIK
notes: as for B2
B4: humanized 5H10 VH2/VK3 (antibody, human IgG4, V domains shown)
VH: QVQLVQSGAEVKKPGSSVKISCKSSGYAFSSYWMNWVKQRPGQGLEWIGQIYPGDGDTHYNGKFKGKATLTADKSTSTAYMELSSLRSEDTAVYFCSSSNWVGSYWGQGTLVTVSS
VL: DVVMTQSPLSLPVTLGQPASISCKSSQSLLESDGKTYLNWLQQRPGQSPRRLIYLVSRLDSGVPDRFSGSGSGTDFTLKISRVEAEDVGVYYCWQGTHLPQTFGGGTKVEIK
notes: as for B2
B5: humanized 5H10 VH3/VK3 (antibody, human IgG4, V domains shown)
VH: QVQLVQSGAEVKKPGSSVKVSCKSSGYAFSSYWMNWVRQRPGQGLEWIGQIYPGDGDTHYNGKFKGKATLTADKSTSTAYMELSSLRSEDTAVYFCSSSNWVGSYWGQGTLVTVSS
VL: DVVMTQSPLSLPVTLGQPASISCKSSQSLLESDGKTYLNWLQQRPGQSPRRLIYLVSRLDSGVPDRFSGSGSGTDFTLKISRVEAEDVGVYYCWQGTHLPQTFGGGTKVEIK
notes: as for B2
B6: humanized 5H10 VH1/VK3 (antibody, human IgG4, V domains shown)
VH: QVQLVQSGAELKKPGSSVKISCKSSGYAFSSYWMNWVKQRPGQGLEWIGQIYPGDGDTHYNGKFKGKATLTADKSTSTAYMELSSLTSEDSAVYFCSSSNWVGSYWGQGTLVTVSS
VL: DVVMTQSPLSLPVTLGQPASISCKSSQSLLESDGKTYLNWLQQRPGQSPRRLIYLVSRLDSGVPDRFSGSGSGTDFTLKISRVEAEDVGVYYCWQGTHLPQTFGGGTKVEIK
notes: as for B2
B7: humanized 5H10 VH4/VK3 (antibody, human IgG4, V domains shown)
VH: QVQLVQSGAEVKKPGSSVKVSCKSSGYAFSSYWMNWVRQRPGQGLEWIGQIYPGDGDTHYNGKFKGRVTITADKSTSTAYMELSSLRSEDTAVYFCSSSNWVGSYWGQGTLVTVSS
VL: DVVMTQSPLSLPVTLGQPASISCKSSQSLLESDGKTYLNWLQQRPGQSPRRLIYLVSRLDSGVPDRFSGSGSGTDFTLKISRVEAEDVGVYYCWQGTHLPQTFGGGTKVEIK
notes: as for B2
B8: murine 5H10 antibody (antibody, V domains shown)
VH: QVQLQQSGAELVRPGSSVKISCKSSGYAFSSYWMNWVKQRPGQGLEWIGQIYPGDGDTHYNGKFKGKATLTADKSSSTAYMQLSRLTSEDSAVYFCSSSNWVGSYWGQGTLVTVSA
VL: not shown
notes: Mouse hybridoma monoclonal with a kappa light chain; It was conjugated to a fluorescent marker for flow cytometry and to pHrodo red for the internalisation assay; also called OpSCF; m5H10

The binders below were run against T1, human stem cell factor isoform SCF248 (hSCF248) (human, UniProt P21583 26-273) (assay: binding score on Sl/Sl4 hSCF248 cells).
T1 construct: also called soluble SCF
T1 sequence (P21583 26-273 limits assumed): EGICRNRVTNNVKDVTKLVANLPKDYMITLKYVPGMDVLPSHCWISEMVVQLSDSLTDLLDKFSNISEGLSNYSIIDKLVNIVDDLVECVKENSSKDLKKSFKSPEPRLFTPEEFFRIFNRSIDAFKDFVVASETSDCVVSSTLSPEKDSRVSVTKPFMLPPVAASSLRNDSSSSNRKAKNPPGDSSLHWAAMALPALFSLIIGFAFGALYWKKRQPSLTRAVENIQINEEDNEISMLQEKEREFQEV

Binding result, binds:
B1, B2, B3, B4, B5, B6, B7

These binders were tested against T1, human stem cell factor isoform SCF248 … (assay: flow cytometry, directly labelled antibody on Sl/Sl4 hSCF248 cells).
Experimental: Binding of the labeled antibody to the cells was assessed by flow cytometry.

Binding result, binds:
B8
